From the supplement of paper PMC10724198
± gives the standard deviation of the averaged measurements.

Tested on: Saccharomyces cerevisiae
Assay: protein stability index of tFT-peptide fusion (C-terminal peptide) (PSI (0-1 scale)); higher = more stable (slower turnover)
Settings: genetic background: wild type; temperature: 30 C
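Note: PSI is a weighted mean of sequencing reads over stability bins, variants kept only with over 10 reads, mCherry proximal and sfGFP distal, peptide attached via GGGS linker.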

Sequence	protein stability index
LVSLSPCPSSPL	0.671 ± 0.014
LVVEAIRSRAFK	0.6919 ± 0.0028
LVVGFRVGLRGV	0.669 ± 0.035
LVVGGLVLSGNL	0.668 ± 0.057
LVWGQPWKMPVV	0.699 ± 0.012
LWCGGWVCVLGW	0.532 ± 0.013
LWGGAGLRCGGF	0.726 ± 0.017
LWGVGAGPEDVG	0.68 ± 0.014
LWRVRCGLGMSG	0.681 ± 0.15
LYDQTSQDRRVF	0.6974 ± 0.004
LYDSNLILSIPC	0.617 ± 0.14
LYFGVGSICLVS	0.649 ± 0.043
LYHFYTASPCLI	0.536 ± 0.044
LYLLPLCRPFPY	0.692 ± 0.013
LYLRNFGSPFLV	0.65 ± 0.024
LYRILQAPRSSP	0.703 ± 0.079
LYSAHLAPGNAD	0.656 ± 0.039
MCGLVGDVLAVG	0.762 ± 0.1
MEAAARRMIKRK	0.6 ± 0.04
MFLVLEGIDSRV	0.65 ± 0.051
MGGGGARAVVVG	0.627 ± 0.021
MGGRAEGWVPVP	0.68 ± 0.15
MGLRDPEWSGDI	0.673 ± 0.018
MGQVMTKQQRKI	0.668 ± 0.016
MGWGALGARGLV	0.683 ± 0.029
MGYDYAPISALF	0.691 ± 0.1

Sequence	protein stability index
MIKINHRIKIKY	0.7115 ± 0.0039
MKEKTNLETKDT	0.691 ± 0.013
MLLLIDTSGGWS	0.71 ± 0.011
MLRMSVSRGGLL	0.729 ± 0.011
MPFTSDAAALAP	0.689 ± 0.03
MPIKGRHSRSLK	0.66 ± 0.044
MPPRVLSALAPL	0.642 ± 0.0023
MPRRLSLNLDYL	0.6563 ± 0.0064
MRDRDSVDNMDG	0.666 ± 0.025
MRPSLSDAMMSS	0.687 ± 0.055
MRRTFQHQGRAN	0.676 ± 0.031
MRSTFFFLQHRH	0.614 ± 0.013
MSGKIMVLQKEE	0.643 ± 0.013
MSIDQPLLGTGV	0.638 ± 0.034
MSLSYYFSPVYS	0.625 ± 0.044
MSRRHDQESIHV	0.673 ± 0.021
MVIYGKEGWRIQ	0.661 ± 0.07
MYSSIFTHVFGV	0.734 ± 0.024
NARGRGAGGAST	0.626 ± 0.048
NASASTLPFPLD	0.71 ± 0.054
NDAKQKRLTFET	0.671 ± 0.048
NDFFVVFSVGEC	0.613 ± 0.041
NDGIKYQSEKRR	0.7 ± 0.02
NDHEQGPTQARG	0.669 ± 0.044
NDQASVLSFRSV	0.664 ± 0.063
NEPQDQLQEQAT	0.665 ± 0.069

Sequence	protein stability index
NFIKCASDIRID	0.67 ± 0.027
NFPPTPECSFVS	0.643 ± 0.0086
NFTPRKHARQRP	0.736 ± 0.0088
NFTSYDIYLSCS	0.671 ± 0.016
NGCVRNVSSLVF	0.607 ± 0.066
NGGFIGVYICRT	0.73 ± 0.13
NGGKDAVVLGGG	0.636 ± 0.054
NGGSAKVYLGKI	0.652 ± 0.019
NGKFLREKMRWG	0.662 ± 0.036
NGKGECSLESSS	0.677 ± 0.013
NGKKYWQEYGWG	0.686 ± 0.025
NGMKDKTKIAKI	0.701 ± 0.008
NGRPGPAEPELW	0.692 ± 0.043
NGVRGRGGQWVQ	0.725 ± 0.03
NGVVAYHVQSFC	0.6 ± 0.011
NHRQPNSTKNRT	0.547 ± 0.044
NHVWGSNRCSSC	0.689 ± 0.04
NIIYKRKKGRRW	0.6889 ± 0.001
NIKIILPWNPPE	0.667 ± 0.013
NIKITVHSTMDM	0.698 ± 0.019
NINHTNLKENKD	0.667 ± 0.0099
NINVSFLSNECR	0.6735 ± 0.0021
NISIFGSRLRVV	0.533 ± 0.034
NITIEGVELERV	0.715 ± 0.029
NKHYIQSHTDPD	0.698 ± 0.023
NKKIKKDKIKGK	0.692 ± 0.031

Sequence	protein stability index
NKKKKQRMKRNG	0.719 ± 0.12
NKKRKYRKNKRG	0.6096 ± 0.0051
NKKTYHRPTKNY	0.693 ± 0.015
NKRKDEIKPRNV	0.581 ± 0.049
NKRKTKNKERRA	0.65 ± 0.012
NKSPWYYILQPM	0.738 ± 0.082
NKSTAEVKMEIR	0.686 ± 0.064
NKVLHPGGKPLT	0.6637 ± 0.0062
NKWKASRKYRKR	0.723 ± 0.025
NLARPTRTFAGV	0.684 ± 0.013
NLCTPRFATDFG	0.629 ± 0.028
NLFDHIHRSTPS	0.761 ± 0.0078
NLIGVVKSEYHR	0.574 ± 0.01
NMLWSLGRGGSC	0.6648 ± 0.0029
NMRQGPLAGLAG	0.748 ± 0.072
NNKSNKKKERKE	0.698 ± 0.053
NNMFFTREYEKL	0.674 ± 0.013
NNMSFLPMLDYT	0.65 ± 0.042
NNQKTKLNEKNC	0.647 ± 0.048
NNVCGIIFRQHH	0.632 ± 0.048
NPARPRPPPRER	0.595 ± 0.057
NPDVYKRNYQHK	0.605 ± 0.035
NPLHGNIRLSPL	0.685 ± 0.046
NPPELPVTENNP	0.821 ± 0.17
NPPSRLPRLPLH	0.728 ± 0.043
NPWYCVWYGAIT	0.626 ± 0.068

Sequence	protein stability index
NQEIGLRNQGRV	0.69 ± 0.033
NQPSHPRPHAER	0.666 ± 0.045
NRELTAVTFQRY	0.709 ± 0.05
NRKGNKGEKNTK	0.676 ± 0.048
NRPKVNSQERGY	0.666 ± 0.02
NRQNYAEDLKSC	0.683 ± 0.02
NRSIFITMDSSL	0.676 ± 0.011
NRSMFSSQNDNA	0.671 ± 0.066
NRYKIKKKIERR	0.6 ± 0.039
NSGSNKSNNRKC	0.726 ± 0.032
NSPRKKPHKSIT	0.711 ± 0.014
NSSPCPLPLLPP	0.662 ± 0.036
NSVHVRGRFITK	0.678 ± 0.023
NSVPSPSRSLPP	0.666 ± 0.081
NTCKMRTRNIKA	0.635 ± 0.0068
NTEKNKRDRYQK	0.722 ± 0.019
NTNPVHLKTHQT	0.713 ± 0.011
NTQLPASPVSQG	0.628 ± 0.027
NTSRSKKKVNSK	0.704 ± 0.035
NTSVSGTGVSSK	0.762 ± 0.12
NTTIQLWVERRQ	0.679 ± 0.063
NTVLPTPTMSPP	0.702 ± 0.04
NVIVRVPFVLEE	0.692 ± 0.059
NVMVRIGKGGVD	0.6664 ± 0.0041
NVSFHRSHLLYF	0.654 ± 0.0067
NYCKGFLLRANI	0.645 ± 0.071

Sequence	protein stability index
NYKFENQIAKPP	0.655 ± 0.077
PAACLSLPPPPS	0.706 ± 0.031
PAFGLSPPSFST	0.728 ± 0.089
PAFPSPFPTSSL	0.647 ± 0.099
PAISPPSPPPLP	0.685 ± 0.047
PALPPAPPPPPP	0.693 ± 0.044
PANASAEGDTSP	0.682 ± 0.0082
PANLLHPSDPPP	0.612 ± 0.0064
PAPLLPPSWRHP	0.716 ± 0.015
PAPPAPPPPPYL	0.735 ± 0.087
PAPPHPRHPPPP	0.649 ± 0.018
PAPPHTLPVWAD	0.728 ± 0.029
PAPPLPPLPLLP	0.684 ± 0.013
PAPPPHIPPSPS	0.651 ± 0.023
PAPRARTPLDRI	0.683 ± 0.039
PAPRFPFLFHPL	0.776 ± 0.035
PAQDCAATGVRR	0.672 ± 0.037
PARASLRCLCRN	0.662 ± 0.055
PARLQSTLHPRF	0.634 ± 0.012
PARPNMHTTPAD	0.646 ± 0.02
PARPQSFPPPNV	0.669 ± 0.035
PARPSPRPHLPD	0.692 ± 0.04
PARPSSLQLFPY	0.747 ± 0.0078
PARQDRPPDHAS	0.729 ± 0.031
PARRPPLPRLFL	0.665 ± 0.032
PASLPTPLPLPP	0.618 ± 0.016

Sequence	protein stability index
PATPSPLSSSAP	0.711 ± 0.039
PAVAPRSTYAWH	0.69619 ± 0.00054
PCGGVGRECVRG	0.762 ± 0.032
PCPGSPPCHFYF	0.691 ± 0.018
PCPRPTPLPPFP	0.701 ± 0.055
PCPVLPLPPFYL	0.728 ± 0.0074
PCRRPSSAPFPV	0.696 ± 0.027
PCSGSFFLEFRV	0.707 ± 0.021
PCSVDKAGSTKK	0.606 ± 0.014
PDCSFLNSTFTS	0.739 ± 0.088
PDGREQLVNGVT	0.6359 ± 0.0019
PDGTGPLCAPEP	0.646 ± 0.059
PDPPPRCRFLPL	0.698 ± 0.044
PDQPQPRPATNQ	0.681 ± 0.022
PDRIQPRSVLLP	0.7293 ± 0.0047
PDVPLASPSPFR	0.625 ± 0.023
PEFNKLNRFVSQ	0.74 ± 0.11
PEGPHTRTVVPA	0.66 ± 0.0088
PEITWFVIGVIE	0.541 ± 0.043
PEPSRRASAVSN	0.648 ± 0.059
PERFHLVCWVGR	0.712 ± 0.083
PFALPPPSPFPP	0.7116 ± 0.0063
PFAVKYIFEVWK	0.591 ± 0.028
PFCVPPPRPFSL	0.743 ± 0.036
PFESSRRLAPSP	0.722 ± 0.035
PFGDRSGLCVSV	0.653 ± 0.017

Sequence	protein stability index
PFIPLSMLSPLV	0.68 ± 0.036
PFLEPPYPLLRS	0.704 ± 0.17
PFLHPSSPPSPT	0.698 ± 0.036
PFLLSPCSLSAS	0.665 ± 0.026
PFPALQHAISRE	0.699 ± 0.066
PFPLGPSLQTVI	0.681 ± 0.028
PFPPLPPPPSPC	0.71 ± 0.014
PFPPPPPPPRSP	0.728 ± 0.047
PFPPPPTPTLSP	0.755 ± 0.027
PFPPPRPPPAPP	0.613 ± 0.023
PFPPRRLLSAPP	0.671 ± 0.039
PFPRPVSPSPPP	0.743 ± 0.037
PFPSFLPLLLPS	0.702 ± 0.069
PFPSLLPALSSL	0.678 ± 0.044
PFPSPAAPPPSL	0.674 ± 0.01
PFPSPPSPPSPL	0.817 ± 0.11
PFPSTIQSYSYS	0.738 ± 0.07
PFRSFVFSLDPF	0.725 ± 0.049
PFSASSILESVI	0.719 ± 0.098
PFTTSSQPDSPI	0.735 ± 0.065
